One block for each binder: values may come before it.
Columns and labels:
[1] = target: human PCSK9 (PCSK9 antigen, SEQ ID NO. 53) (human); experiment: MSD-SET, Fab with biotin-PCSK9 in solution, IgG on plate, pH 6.0
murine PCSK-9 (murine) = murine PCSK-9 (murine) (UniProt Q80W65); experiment: MSD-SET, Fab with biotin-PCSK9 in solution, IgG on plate, pH 7.4
[2] = target: human PCSK9 (PCSK9 antigen, SEQ ID NO. 53) (human); experiment: as above
[3] = target: cynomolgus PCSK-9 (cynomolgus); experiment: as above
[4] = target: cynomolgus PCSK-9 (cynomolgus); experiment: BLI (ForteBio), IgG on AHQ sensor, 100 nM antigen

Kd [1]: 0.038 nM
Kd (murine PCSK-9 (murine)): 0.065 nM
Kd [2]: 0.021 nM
Kd [3]: 0.026 nM
B1: Bococizumab Fab (Fab, INN chains, looked up, V domains shown)
VH: QVQLVQSGAEVKKPGASVKVSCKASGYTFTSYYMHWVRQAPGQGLEWMGEISPFGGRTNYNEKFKSRVTMTRDTSTSTVYMELSSLRSEDTAVYYCARERPLYASDLWGQGTTVTVSS
VL: DIQMTQSPSSLSASVGDRVTITCRASQGISSALAWYQQKPGKAPKLLIYSASYRYTGVPSRFSGSGSGTDFTFTISSLQPEDIATYYCQQRYSLWRTFGQGTKLEIK
modifications: Fab

Kd [4]: 2.34 nM
B2: Lodelcizumab (antibody, INN chains, looked up, V domains shown)
VH: QVQLVQSGAEVKKPGASVKVSCKASGYTFSTMYMSWVRQAPGQGLEWMGRIDPANEHTNYAQKFQGRVTMTRDTSISTAYMELSRLTSDDTAVYYCARSYYYYNMDYWGQGTLVTVSS
VL: QIVLTQSPATLSVSPGERATLSCRASQSVSYMHWYQQKPGQAPRLLIYGVFRRATGIPDRFSGSGSGTDFTLTIGRLEPEDFAVYYCLQWSSDPPTFGQGTKLEIK

Kd [3]: 0.1 nM
B3: Lodelcizumab Fab (Fab, INN chains, looked up, V domains shown)
VH: B2 VH
VL: B2 VL
modifications: Fab

Source: US20200087416A1
